Results from patent US20140242095A1.
Residue numbers refer to the chain shown, from its start. Each block holds one binder with its values, some of them ahead of it.

Molecular target: NOD mouse SIRPα-Fc fusion protein (mouse (NOD strain)) (UniProt P97797)
Test: competitive ELISA

fold improvement in affinity against parent 29-AM3-35: 2 fold
B1: SIRP29-AM4-1 Fab (Fab, V domains shown)
VH: EVQLVESGGGLVQPGGSLRLSCAASGFNISYYFIHWVRQAPGKGLEWVASVYSSFGYTYYADSVKGRFTISADTSKNTAYLQMNSLRAEDTAVYYCARFTFPGAMDGFFGAYLGSLDYWGQGTLVTVSS
VL: DIQMTQSPSSLSASVGDRVTITCRASQSVSSAVAWYQQKPGKAPKLLIYSASSLYSGVPSRFSGSRSGTDFTLTISSLQPEDFATYYCQQAVNWVGALVTFGQGTKVEIK

fold improvement in affinity against parent 29-AM3-35: 2 fold
B2: SIRP29-AM4-5 Fab (Fab, V domains shown)
VH: B1 VH with A104L, M105F
VL: B1 VL
